# Test results from IntAct's records for PubMed 18571510.
# B1: Regulatory protein NPR1 (Arabidopsis thaliana (Mouse-ear cress)), P93002 (parent)
# chain: MDTTIDGFADSYEISSTSFVATDNTDSSIVYLAAEQVLTGPDVSALQLLSNSFESVFDSPDDFYSDAKLVLSDGREVSFHRCVLSARSSFFKSALAAAKKEKDSNNTAAVKLELKEIAKDYEVGFDSVVTVLAYVYSSRVRPPPKGVSECADENCCHVACRPAVDFMLEVLYLAFIFKIPELITLYQRHLLDVVDKVVIEDTLVILKLANICGKACMKLLDRCKEIIVKSNVDMVSLEKSLPEELVKEIIDRRKELGLEVPKVKKHVSNVHKALDSDDIELVKLLLKEDHTNLDDACALHFAVAYCNVKTATDLLKLDLADVNHRNPRGYTVLHVAAMRKEPQLILSLLEKGASASEATLEGRTALMIAKQATMAVECNNIPEQCKHSLKGRLCVEILEQEDKREQIPRDVPPSFAVAADELKMTLLDLENRVALAQRLFPTEAQAAMEIAEMKGTCEFIVTSLEPDRLTGTKRTSPGVKIAPFRILEEHQSRLKALSKTVELGKRFFPRCSAVLDQIMNCEDLTQLACGEDDTAEKRLQKKQRYMEIQETLKKAFSEDNLELGNSSLTDSTSSTSKSTGGKRSNRKLSHRRR
# partner: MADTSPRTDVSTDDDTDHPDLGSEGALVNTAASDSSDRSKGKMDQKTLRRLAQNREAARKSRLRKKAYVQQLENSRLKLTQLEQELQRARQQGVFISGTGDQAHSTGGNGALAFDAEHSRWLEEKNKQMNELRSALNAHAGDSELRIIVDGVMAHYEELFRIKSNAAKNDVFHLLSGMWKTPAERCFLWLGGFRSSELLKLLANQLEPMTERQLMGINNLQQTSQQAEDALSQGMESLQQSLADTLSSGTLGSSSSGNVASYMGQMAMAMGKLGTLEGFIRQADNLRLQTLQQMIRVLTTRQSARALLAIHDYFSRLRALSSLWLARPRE
# Variants of: B1
# Conditions: with tga2_arath TGA2, P43273
row,effect of a mutation on the interaction,Variant
1,disrupting interaction,MDTTIDGFADSYEISSTSFVATDNTDSSIVYLAAEQVLTGPDVSALQLLSNSFESVFDSPDDFYSDAKLVLSDGREVSFHRCVLSARSSFFKSALAAAKKEKDSNNTAAVKLELKEIAKDYEVGFDSVVTVLAYVYSSRVRPPPKGVSEYADENCCHVACRPAVDFMLEVLYLAFIFKIPELITLYQRHLLDVVDKVVIEDTLVILKLANICGKACMKLLDRCKEIIVKSNVDMVSLEKSLPEELVKEIIDRRKELGLEVPKVKKHVSNVHKALDSDDIELVKLLLKEDHTNLDDACALHFAVAYCNVKTATDLLKLDLADVNHRNPRGYTVLHVAAMRKEPQLILSLLEKGASASEATLEGRTALMIAKQATMAVECNNIPEQCKHSLKGRLCVEILEQEDKREQIPRDVPPSFAVAADELKMTLLDLENRVALAQRLFPTEAQAAMEIAEMKGTCEFIVTSLEPDRLTGTKRTSPGVKIAPFRILEEHQSRLKALSKTVELGKRFFPRCSAVLDQIMNCEDLTQLACGEDDTAEKRLQKKQRYMEIQETLKKAFSEDNLELGNSSLTDSTSSTSKSTGGKRSNRKLSHRRR [C150Y]
